This is an account of results in PMC8729784.

This assay concerns the target T1, α-catenin monomer (recombinant full-length mouse α-catenin) (mouse), P26231.
T1 chain: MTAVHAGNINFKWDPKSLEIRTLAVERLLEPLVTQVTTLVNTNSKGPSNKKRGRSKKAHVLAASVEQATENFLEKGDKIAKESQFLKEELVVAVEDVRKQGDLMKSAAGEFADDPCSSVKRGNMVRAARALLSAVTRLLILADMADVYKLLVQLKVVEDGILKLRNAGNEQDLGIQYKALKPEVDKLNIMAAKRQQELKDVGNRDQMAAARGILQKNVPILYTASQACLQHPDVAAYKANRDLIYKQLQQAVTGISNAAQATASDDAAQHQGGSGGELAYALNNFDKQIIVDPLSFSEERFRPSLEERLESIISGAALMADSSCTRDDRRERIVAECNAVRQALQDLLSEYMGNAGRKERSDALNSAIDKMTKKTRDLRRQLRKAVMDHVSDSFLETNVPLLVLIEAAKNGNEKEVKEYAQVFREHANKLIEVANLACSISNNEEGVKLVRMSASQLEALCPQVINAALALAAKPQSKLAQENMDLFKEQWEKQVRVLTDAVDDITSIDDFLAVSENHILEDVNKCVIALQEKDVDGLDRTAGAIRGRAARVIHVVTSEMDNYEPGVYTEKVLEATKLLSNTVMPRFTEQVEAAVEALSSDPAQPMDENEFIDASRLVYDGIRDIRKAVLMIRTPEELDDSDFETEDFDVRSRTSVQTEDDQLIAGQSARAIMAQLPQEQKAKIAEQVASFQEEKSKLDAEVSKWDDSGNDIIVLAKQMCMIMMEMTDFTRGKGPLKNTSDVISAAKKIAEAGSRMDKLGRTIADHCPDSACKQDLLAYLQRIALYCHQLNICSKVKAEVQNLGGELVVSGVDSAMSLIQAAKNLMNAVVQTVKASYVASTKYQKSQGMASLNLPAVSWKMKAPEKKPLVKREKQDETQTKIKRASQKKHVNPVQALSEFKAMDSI
Description: SEC; Superdex 200 gel filtration at 4°C in 20 mM Tris-HCl pH 8.0, 150 mM NaCl, 2.5 mM DTT, after His-tag affinity chromatography; dimer and monomers. Conditions: remark: other sources report otherwise. On the technique in general: Size exclusion chromatography separates by hydrodynamic size, large species first.

What is called stoichiometry N is a count of units in the complex or per binding partner.

B1: α-catenin monomer (recombinant full-length mouse α-catenin), P26231 1-906 (natural protein)
chain: MTAVHAGNINFKWDPKSLEIRTLAVERLLEPLVTQVTTLVNTNSKGPSNKKRGRSKKAHVLAASVEQATENFLEKGDKIAKESQFLKEELVVAVEDVRKQGDLMKSAAGEFADDPCSSVKRGNMVRAARALLSAVTRLLILADMADVYKLLVQLKVVEDGILKLRNAGNEQDLGIQYKALKPEVDKLNIMAAKRQQELKDVGNRDQMAAARGILQKNVPILYTASQACLQHPDVAAYKANRDLIYKQLQQAVTGISNAAQATASDDAAQHQGGSGGELAYALNNFDKQIIVDPLSFSEERFRPSLEERLESIISGAALMADSSCTRDDRRERIVAECNAVRQALQDLLSEYMGNAGRKERSDALNSAIDKMTKKTRDLRRQLRKAVMDHVSDSFLETNVPLLVLIEAAKNGNEKEVKEYAQVFREHANKLIEVANLACSISNNEEGVKLVRMSASQLEALCPQVINAALALAAKPQSKLAQENMDLFKEQWEKQVRVLTDAVDDITSIDDFLAVSENHILEDVNKCVIALQEKDVDGLDRTAGAIRGRAARVIHVVTSEMDNYEPGVYTEKVLEATKLLSNTVMPRFTEQVEAAVEALSSDPAQPMDENEFIDASRLVYDGIRDIRKAVLMIRTPEELDDSDFETEDFDVRSRTSVQTEDDQLIAGQSARAIMAQLPQEQKAKIAEQVASFQEEKSKLDAEVSKWDDSGNDIIVLAKQMCMIMMEMTDFTRGKGPLKNTSDVISAAKKIAEAGSRMDKLGRTIADHCPDSACKQDLLAYLQRIALYCHQLNICSKVKAEVQNLGGELVVSGVDSAMSLIQAAKNLMNAVVQTVKASYVASTKYQKSQGMASLNLPAVSWKMKAPEKKPLVKREKQDETQTKIKRASQKKHVNPVQALSEFKAMDSI
As to B1, the stoichiometry N turned out to be 2.
